Among the data in patent publication US6132976 are [CB11B] BY INHIBITION ASSAY (µg/ml) of NC + 500 µg/ml CHYMOTRYPSIN, [α1(II)-CB11B] by immunoassay (µg/ml) after treatment and [α1(II)-CB11B] by immunoassay values, retold here.

Non-standard residues stand in square brackets, D forms with d. No end group written: not given here. Hyp = O=C(O)[C@@H]1C[C@@H](O)CN1

For experiment [1], the target named is native helical type II collagen.
Experiment [2] has as its target heat denatured type II collagen (HDC).
The target in experiment [3] is monoclonal antibody COL2-3/4m. The experiment can be described thus: inhibition ELISA with COL2-3/4m, HDC on the plate; sample incubated in Tris/CaCl2 without collagenase. (In general: An ELISA detects its analyte on a solid surface through an enzyme-linked reagent.)

Regarding α-chymotrypsin (enzyme), the [CB11B] BY INHIBITION ASSAY (µg/ml) of NC + 500 µg/ml CHYMOTRYPSIN in experiment [1] is 0 µg/mL.
As for “chromatographically purified collagenase form III from Clostridium histolyticum (enzyme)”, the [α1(II)-CB11B] by immunoassay (µg/ml) after treatment in experiment [2] was 0.84 µg/mL.
The molecule CGKVGPSGA[Hyp]GEDGR[Hyp]GP[Hyp]GPQY [synthetic peptide CB11B] gave a [α1(II)-CB11B] by immunoassay in experiment [3] of 4.44 µg/mL.
